B1: Azoarcus group I ribozyme (parent)
chain: GUGCCUUGCGCCGGGAAACCACGCAAGGGAUGGUGUCAAAUUCGGCGAAACCUAAGCGCCCGCCCGGGCGUAUGGCAACGCCGAGCCAAGCUUCGGCGCCUGCGCCGAUGAAGGUGUAGAGACUAGACGGCACCCACCUAAGGCAAACGCUAUGGUGAAGGCAUAGUCCAGGGAGUGGCGAAAGUCACACAAACCGG

Variants of: B1
Experiment: reverse-splicing fitness (ratio to wild type); higher = more active; in vitro selection; Mg2+ level not given
Method in brief: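 An in vitro group I ribozyme library with randomized positions was T7-transcribed and gel-purified. In triplicate, 10 pmol RNA in EPPS pH 7.5 was reacted with 50 pmoles of a 30-nt RNA substrate for 1 h at 37 °C across several added MgCl2 levels (1–48 mM), then stopped with EDTA. Products were reverse transcribed from a substrate-complementary primer, PCR-amplified and sequenced (HiSeq 4000). Fitness is a variant's read proportion after selection over that before, normalised to wild type.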

| Variant | reverse-splicing fitness |
| --- | --- |
| C82G A111C A145C C169G U176G | 0.00663 |
| C82G A111C A145C C169G U176C | 0.0197 |
| C82G A111C A145C C169G U176A | 0.0274 |
| C82G A111G A120C A145C C150G C169U U176A | 0.00714 |
| C82G A111G A120C A145C C150G C169U U176C | 0.0131 |
| C82G A111G A120C A145C C150G C169U U176G | 0.00551 |
| C82G A111C A145U C150G C169A | 0.00796 |
| C82G A111C A145U C150G C169G | 0.0063 |
| C82G A111C A145U C150G C169U | 0.00891 |
| C82G A111G A120C A145C C150U | 0.0209 |
| C82G A111G A120C A145C C150G | 0.0108 |
| C82G A111G A120C A145C C150A | 0.011 |
| C82G A111C A145U C169G U176C | 0.0169 |
| C82G A111C A145U C169G U176G | 0.00766 |
| C82G A111C A145U C169G U176A | 0.014 |
| C82G A111C C150G C169G U176C | 0.00598 |
| C82G A111C C150G C169G U176A | 0.00734 |
| C82G A111C C150G C169G U176G | 0.00603 |
| C82G A111C A145G C150U C169A | 0.0097 |
| C82G A111C A145G C150U C169G | 0.00884 |
| C82G A111C A145G C150U C169U | 0.0115 |

| Variant | reverse-splicing fitness |
| --- | --- |
| C82G A111C A145U C150G U176C | 0.0214 |
| C82G A111C A145U C150G U176G | 0.0052 |
| C82G A111C A145U C150G U176A | 0.0124 |
| C82G A111C A145C C150U C169U U176A | 0.013 |
| C82G A111C A145C C150U C169U U176G | 0.00739 |
| C82G A111C A145C C150U C169U U176C | 0.0131 |
| C82G A111G A120C A145C C169U U176C | 0.01 |
| C82G A111G A120C A145C C169U U176G | 0.00475 |
| C82G A111G A120C A145C C169U U176A | 0.0142 |
| C82G A111C A145G C169U U176C | 0.0148 |
| C82G A111C A145G C169U U176G | 0.00729 |
| C82G A111C A145G C169U U176A | 0.0152 |
| C82G A111G A120C A145G | 0.0871 |
| C82G A111G A120C A145C | 0.0798 |
| C82G A111C A145G C150G C169U U176A | 0.0103 |
| C82G A111C A145G C150G C169U U176C | 0.0116 |
| C82G A111C A145G C150G C169U U176G | 0.00728 |
| C82G A111C A145U C150U C169U U176G | 0.00778 |
| C82G A111C A145U C150U C169U U176A | 0.0161 |
| C82G A111C A145U C150U C169U U176C | 0.0115 |
| C82G A111G A120C A145G C150G C169A U176A | 0.0153 |

| Variant | reverse-splicing fitness |
| --- | --- |
| C82G A111G A120C A145G C150G C169A U176G | 0.0091 |
| C82G A111G A120C A145G C150G C169A U176C | 0.0151 |
| C82G A111C A145G C150A C169U U176G | 0.00863 |
| C82G A111C A145G C150A C169U U176A | 0.0153 |
| C82G A111C A145G C150A C169U U176C | 0.0161 |
| C82G A111G A120C A145C C150U C169A U176C | 0.00829 |
| C82G A111G A120C A145C C150U C169A U176G | 0.00589 |
| C82G A111G A120C A145C C150U C169A U176A | 0.012 |
| C82G A111G A120C A145G C150G U176G | 0.0057 |
| C82G A111G A120C A145G C150G U176C | 0.011 |
| C82G A111G A120C A145G C150G U176A | 0.00724 |
| C82G A111C A145G C150G C169G U176C | 0.0117 |
| C82G A111C A145G C150G C169G U176A | 0.00869 |
| C82G A111C A145G C150G C169G U176G | 0.00603 |
| C82G A111G A120C A145C C150G C169G | 0.00805 |
| C82G A111G A120C A145C C150G C169U | 0.00968 |
| C82G A111G A120C A145C C150G C169A | 0.00872 |
| C82G A111G A120C A145C C150A U176A | 0.0112 |
| C82G A111G A120C A145C C150A U176C | 0.0111 |
| C82G A111G A120C A145C C150A U176G | 0.00662 |
| C82G A111G A120C A145G C150A U176C | 0.0254 |

| Variant | reverse-splicing fitness |
| --- | --- |
| C82G A111G A120C A145G C150A U176A | 0.0144 |
| C82G A111G A120C A145G C150A U176G | 0.0119 |
| C82G A111G A120C A145C C150A C169U U176C | 0.0126 |
| C82G A111G A120C A145C C150A C169U U176G | 0.00668 |
| C82G A111G A120C A145C C150A C169U U176A | 0.0148 |
| C82G A111C C150A U176A | 0.0223 |
| C82G A111C C150A U176G | 0.0116 |
| C82G A111C C150A U176C | 0.0293 |
| C82G A111G A120C A145G C150G C169G U176G | 0.00653 |
| C82G A111G A120C A145G C150G C169G U176A | 0.0109 |
| C82G A111G A120C A145G C150G C169G U176C | 0.0112 |
| C82G A111G A120C A145C U176G | 0.00938 |
| C82G A111G A120C A145C U176A | 0.0266 |
| C82G A111G A120C A145C U176C | 0.035 |
| C82G A111C C169U U176A | 0.0194 |
| C82G A111C C169U U176G | 0.00759 |
| C82G A111C C169U U176C | 0.0154 |
| C82G A111C A145U | 0.283 |
| C82G A111C A145G | 0.289 |
| C82G A111C A145G C150U C169U U176G | 0.0071 |
